Experimental data taken from paper PMC10045213.
pKd: −log10 of the molar value.

Biological target: p75 NeuroTrophin Receptor (UniProt P08138)
Experiment: SPR; TrkA immobilized at 8860 RU, p75NTR immobilized at 4320 RU; 1.7-15 nM hNGF R100W flowed over; curves blank subtracted

UniProt P08138, sequence (P08138 29-427): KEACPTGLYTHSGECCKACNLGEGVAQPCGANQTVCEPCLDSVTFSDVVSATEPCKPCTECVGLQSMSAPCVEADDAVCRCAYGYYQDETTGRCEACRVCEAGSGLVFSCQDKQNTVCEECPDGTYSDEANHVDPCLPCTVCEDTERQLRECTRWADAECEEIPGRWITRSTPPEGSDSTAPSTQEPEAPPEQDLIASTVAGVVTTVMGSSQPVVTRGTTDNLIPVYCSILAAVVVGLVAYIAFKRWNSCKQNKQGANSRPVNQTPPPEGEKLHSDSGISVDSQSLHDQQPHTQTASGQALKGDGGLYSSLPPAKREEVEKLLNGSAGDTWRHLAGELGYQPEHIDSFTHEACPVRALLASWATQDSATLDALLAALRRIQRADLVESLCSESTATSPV

pKd: 7.00
Substance: human NGF R100W (from UniProt P01138 122-241) (ligand)
